In assay [1] the target is coatomer protein I (COP-I), endogenous, HEK cells (human (endogenous in HEK-293)) (UniProt P53618). The experiment in a line: co-IP; lysates of HEK cells transfected with V5 tagged constructs, immunoprecipitated with anti COP I antibody, blot with anti V5 antibody.
For assay [2], the target named is NF-R13E/R14E (N-terminally FLAG-tagged PLN R13E/R14E) (rabbit) (UniProt P61015). Put plainly: co-IP; lysates of transfected HEK cells, FLAG-tagged PLN constructs precipitated with anti-Flag antibody and Protein G-Sepharose, 4°C, 0.1% Triton-X100, blot with COP I antibody.
In assay [3] the target is NF-PLN RΔ14 (rabbit) (UniProt P61015). Described as above.
Assay [4] addresses coatomer protein I (COP-I), endogenous, HEK cells (human (endogenous in HEK-293)) (UniProt P53618). The experiment in a line: co-IP; lysates of HEK cells transfected with V5 tagged constructs, immunoprecipitated with anti COP I antibody, blot with anti V5 antibody. This is another data set of the same source.

Like-named read-outs stand apart in the source and are kept apart here.

Consider “V5 tagged Sigma 1R R7E/R8E (from UniProt Q99720 1-223) (natural protein)”, for which the fold band intensity of the wild type over this mutant in assay [1] was greater than 2 fold.

Regarding “coatomer protein I (COP-I), endogenous, HEK cells (from UniProt P53618 1-953) (complex)”, the fold reduction in band intensity against NF-PLN in assay [2] and in assay [3] was 5 fold each time.

B1: V5 tagged SR β R7E/R8E (natural protein)
chain: MASADSEEVADGGGAGGTFQPYLDTLRQELQQTDPTLLSVVVAVLAVLLTLVFWKLIRSRRSSQRAVLLVGLCDSGKTLLFVRLLTGLYRDTQTSITDSCAVYRVNNNRGNSLTLIDLPGHESLRLQFLERFKSSARAIVFVVDSAAFQREVKDVAEFLYQVLIDSMGLKNTPSFLIACNKQDIAMAKSAKLIQQQLEKELNTLRVTRSAAPSTLDSSSTAPAQLGKKGKEFEFSQLPLKVEFLECSAKGGRGDVGSADIQDLEKWLAKIA
B1 showed a fold band intensity of the wild type over this mutant in assay [4] greater than 2 fold.
